Source: US11834472B2, “Anti-IL-22 antibodies, antibody fragments, their immunoconjugates and uses thereof” (BioAtla, Inc., priority 2018, dated 2023)

Columns and labels:
mIL22 = target: T1, mIL22 (Mus musculus, UniProt Q9JJY9); test: Inhibition of mIL-22 induced acute phase response (SAA) in mice; assay type: in vivo; details: 5 μg mIL22 and 50 μg mAb; molar ratio of mIL 22:mAb = 1:2.2; SAA in mice at 24 hours
T1 sequence (Q9JJY9 34-179): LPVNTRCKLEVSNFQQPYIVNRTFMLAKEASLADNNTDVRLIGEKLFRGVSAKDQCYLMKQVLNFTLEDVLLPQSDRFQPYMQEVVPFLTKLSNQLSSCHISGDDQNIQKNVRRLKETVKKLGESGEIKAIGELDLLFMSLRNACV
Method: IL-22 induces acute phase responses in animals such as mice and humans. The mutant antibodies of the present invention can inhibit the acute phase response induced by IL-22. This acute phase response is indicated by the concentration of serum amyloid (SAA) in the blood of the animal as shown in FIG. 11. The SAA concentrations in the blood of mice were measured 24 hours after treatment of the mice by IL-22 and/or the mutant antibodies. When only IL-22 is used, the SAA concentration was high.
5 μg mIL-22 was used to stimulate an acute phase response in mice. The acute phase response was measured by the concentration of serum amyloid (SAA) in the blood of the mice. The anti-IL-22 antibodies were administered at two different dosage levels to inhibit the IL-22 induced acute phase response: 5 μg and 50 μg. Five mice were used for each dose group. The SAA concentrations were measured at 24 hours after injection of IL-22 and/or antibodies and the results are shown in FIG. 11.

mouse IL-22 (mIL-22) = target: T2, mouse IL-22 (mIL-22) (Mus musculus, UniProt Q9JJY9); test: Inhibition of mIL-22 induced Stat3 phosphorylation in HepG2 cells; assay type: cell-based; details: mAb 6.7 nM
T2 sequence (Q9JJY9 34-179): T1 sequence (Q9JJY9 34-179)
Method: One of the immediate functions of IL-22 is inducing phosphorylation of Stat3, a protein in the signaling pathway of IL-22. The 10 antibodies of Table 1 were tested in a cell-based assay for blocking IL-22-dependent phosphorylation of Stat3 through human or mouse IL-22 in HepG2 cells. Antibody hum10 and mutant CPE-LC-E049K were used as controls. Four concentrations of each of the antibodies were used: 0.11 μg/mL, 0.33 μg/mL, 1 μg/mL, and 3 μg/mL.
30,000 human HepG2 cells were seeded in 96 well plates and serum starved overnight. Three-fold dilutions of anti-IL-22 antibodies and control hum10 antibody at concentrations of 0.11 μg/mL, 0.33 μg/mL, 1 μg/mL, and 3 μg/mL were incubated with 200 ng/ml of hIL-22 or mIL-22 at 37° C. for one hour then added to the serum starved human HepG2 cells. The HepG2 cells were incubated with the antibody-IL-22 mixture at 37° C. for 20 minutes. After incubation, HepG2 cells were washed with PBS and lysed. Half of the cell lysate was used to determine the level of phosphorylated Stat3 using Cell Signaling kit #7300 following the vendor's protocol and the other half of the cell lysate was used to determine the level of total Stat3 by Western blot analysis using a Santa Cruz rabbit polyclonal antibody (Sc-7179) against human Stat3.

[1] = Pharmacokinetics in NOD SCID mice, plasma concentration by solid phase ELISA; assay type: in vivo, mouse; details: after a 10 mg/kg IV injection
Method: The pharmacokinetics of the mutant antibodies of Table 1 were analyzed in mice. The antibodies were injected into mice by IV injection at two doses 0.3 mg/kg and 10 mg/kg. The concentrations of the injected antibodies in the blood plasma were measured by solid phase ELISA.
Two anti-IL-22 antibodies CPS02 and CPS09 were tested in NOD SCID mice. The antibodies were injected via IV at two dosages: 0.3 mg/kg and 10 mg/kg. Three mice were used for each dose group. Blood samples were retrieved from the mice at 10 min, 1 h, 3 h 7 h, 24 h, 48 h, 96 h, 168 h, 240 h and 336 h after the IV injection. The concentrations of the injected antibodies in the blood samples were measured by solid phase ELISA.

B1: CPS02: mutant anti-IL-22 antibody binding human and mouse IL-22; light chain LC-06, heavy chain HC-08 (antibody, V domains shown)
VH: QVQLVQSGAEVKKPGASVKVSCKASGYIFRSYWIHWIRQPPGKGLEWIGRIYPGTGRTYYNEKFKGRVTISADKSISTAYLQWSSLKASDTAMYYCARSYDSSVAYWGQGTLVTVSS
VL: AIQLTQSPSSLSASVGDRVTITCSASSSVSYMHWYLQKPGQSPQLLIYKTRKLASGVPSRFSGSGSGTDFTFTISSLEAEDAATYYCQQWSSNPYITFGQGTKVEIKR
Acute Phase response (% signal reduction) (mIL22): signal increase
STAT3 Phosphorylation; mIL22 % inhibition (mouse IL-22 (mIL-22)): 76.18%
half-life in mice [1]: about 18 hours
